The values below come from patent US20260029420A1 (Hoffmann-La Roche, published 2026).

The target in one experiment is T1, human CB2 (full length) (human, UniProt P34972 1-360).
T1 construct: whole, on cells; In Western blot and immunoprecipitation the protein stood in cell lysate; also called hCB2; CHODukx CRE hCB2 Cl.90
Kind of experiment: flow cytometry, CHO-DUKX_HOMSA_CNR2_Clone_90_CRE-Luc cells against CHO-DUKX parental cells. The text has this:
For detection an F(ab)₂ goat-anti Mouse IgG₃ PE antibody was used.
(A flow cytometer gives signals particle by particle.)

In the next experiment the target is T2, Human_CB2-pANITA3.1 (human).
T2 construct: Expressed on transfected HEK293 cells; tested on fixed cells (IF) or in lysate (WB, IP); also called pANITA3.1 hCB2 (JB175); hCB2 (JB175)
T2 sequence (chain, as listed by the source): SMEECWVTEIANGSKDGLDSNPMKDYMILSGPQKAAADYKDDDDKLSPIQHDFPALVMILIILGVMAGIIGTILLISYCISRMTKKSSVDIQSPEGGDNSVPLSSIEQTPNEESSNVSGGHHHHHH
The experiment in a line: Western blot, cell lysate. Here is the method: For Western blot analysis, cells were collected using enzyme free dissociation buffer (Cell dissociation buffer enzyme-free Hanks'-based, Gibco), and washed two times with PBS. To prepare cell lysate, 10⁶ cells were lysed with 0.1 ml of lysis buffer (1% NP40, 10% glycerol, 2 mM EDTA, 137 mM NaCl, 20 mM TrisHCl, pH8, Protease Inhibitors) for 10 min on ice. The lysate was cleared by centrifugation at 20′000 g for 5 min. For SDS-PAGE cell lysate was resolved on precast 4-12% gradient gels (NuPAGE® Novex 4-12% Bis-Tris Gel, Invitrogen) with MES running buffer according to the manufacturer's directions. The separation of proteins was visualized by Colloidal Blue staining. The proteins were electrophoretically transferred to nitrocellulose membrane using a dry-blotting system (iBlot, Invitrogen). After blocking the membrane for 16 h in blocking buffer (5% Milk in PBS) at 4° C., specific proteins were detected with appropriate dilutions of mAbs in blocking buffer for 1 h at approximately 20° C. The membrane was then washed four times for 5 minutes in blocking buffer and incubated with horseradish peroxidase conjugated anti-mouse IgG mAb (GAM/IgG (g-chain)/HRP, Sigma, A9917) diluted 1:10'000 in blocking buffer at approximately 20° C. for 1 h. After washing again, blots were developed using ECL Western blotting detection reagents (ECL Western Blotting Substrate, Pierce) to visualize bands.
In general terms: In western blotting, separated proteins are transferred to a membrane and probed.

The target of a further experiment is T3, mouse CB2 (full length) (mouse, UniProt P47936 1-347).
T3 construct: whole, on cells; In Western blot and immunoprecipitation the protein stood in cell lysate; also called mCB2; CHO-A2 mCB2
T3 sequence (P47936 whole entry): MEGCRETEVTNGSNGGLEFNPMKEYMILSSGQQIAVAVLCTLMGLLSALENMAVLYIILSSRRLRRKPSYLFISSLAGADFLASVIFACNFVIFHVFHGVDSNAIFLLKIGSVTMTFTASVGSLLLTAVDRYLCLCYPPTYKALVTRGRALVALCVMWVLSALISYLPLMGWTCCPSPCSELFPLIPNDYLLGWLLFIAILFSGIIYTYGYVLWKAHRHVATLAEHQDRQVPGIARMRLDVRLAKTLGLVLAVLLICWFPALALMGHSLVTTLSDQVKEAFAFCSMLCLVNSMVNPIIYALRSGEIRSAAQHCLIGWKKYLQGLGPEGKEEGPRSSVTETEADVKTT
Kind of experiment: immunofluorescence, fixed cells. Here is the method: (§1) For IF analysis, methanol-fixed cells were incubated for 20 min in a humid chamber at 37° C. with the respective hCB2 and mCB2 clones. After rinsing twice and washing for 15 min in PBS, 125 μg/ml FITC-conjugated […] anti-mouse IgG antibodies (RAM/IgG (H+L)/FITC, Nordic

A further experiment has as its target T4, Mouse_CB2-pANITA3.1 (mouse).
T4 construct: Fusion of the mouse CB2 N-terminal extracellular domain with mouse glycophorin A transmembrane and His-tagged cytoplasmic domains; Expressed on transfected HEK293 cells; also called pANITA3.1 mCB2 (JB176); mCB2 (JB176)
Kind of experiment: immunofluorescence, fixed cells. Here is the method: as §1

For the next experiment, the target named is T5, human CB1 (full length) (human, UniProt P21554 1-472).
T5 construct: whole, on cells; In Western blot and immunoprecipitation the protein stood in cell lysate; also called hCB1; CHODukx CRE hCB1 Cl.20
T5 sequence (P21554 whole entry): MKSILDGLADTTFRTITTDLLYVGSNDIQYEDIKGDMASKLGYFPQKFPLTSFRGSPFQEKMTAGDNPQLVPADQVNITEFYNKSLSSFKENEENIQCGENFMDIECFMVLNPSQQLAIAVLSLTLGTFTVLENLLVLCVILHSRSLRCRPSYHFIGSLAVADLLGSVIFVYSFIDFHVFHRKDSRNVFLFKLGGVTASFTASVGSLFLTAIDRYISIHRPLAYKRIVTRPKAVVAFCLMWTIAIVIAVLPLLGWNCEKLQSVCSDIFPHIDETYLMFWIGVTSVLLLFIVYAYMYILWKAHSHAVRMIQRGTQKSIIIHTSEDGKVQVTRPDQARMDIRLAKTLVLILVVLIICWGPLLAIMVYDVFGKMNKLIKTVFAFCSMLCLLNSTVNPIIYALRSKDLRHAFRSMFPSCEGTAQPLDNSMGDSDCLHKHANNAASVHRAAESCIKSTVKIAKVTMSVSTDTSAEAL
The experiment in a line: immunofluorescence, fixed cells. Here is the method: as §1

T4 sequence (chain, as listed by the source): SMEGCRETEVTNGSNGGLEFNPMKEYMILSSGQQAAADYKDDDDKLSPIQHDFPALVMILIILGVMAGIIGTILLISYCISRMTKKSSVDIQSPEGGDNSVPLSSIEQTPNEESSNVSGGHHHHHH
T1 sequence (P34972 whole entry): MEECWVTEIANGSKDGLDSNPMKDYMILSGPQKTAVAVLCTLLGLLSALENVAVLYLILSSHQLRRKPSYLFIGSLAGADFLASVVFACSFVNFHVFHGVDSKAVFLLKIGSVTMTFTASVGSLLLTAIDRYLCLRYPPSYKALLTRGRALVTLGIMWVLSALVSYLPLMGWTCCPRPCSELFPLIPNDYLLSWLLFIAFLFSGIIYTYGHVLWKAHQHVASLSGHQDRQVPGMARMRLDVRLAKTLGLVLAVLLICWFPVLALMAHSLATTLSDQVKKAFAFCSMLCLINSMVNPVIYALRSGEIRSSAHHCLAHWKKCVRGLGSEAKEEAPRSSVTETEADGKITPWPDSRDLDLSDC

B1: Anti-CB2 clone 1/622 (antibody, IgG3, V domains shown)
VH: EVQLQQSGPELVKPGASVKISCKTSGYTFTEYTMHWVRQSHGKSLEWIGGIDRYNGDTYYNQKFKDKATLTVDRSSSTAYMELRSLTSEDSAVYFCARNGAMDYWGQGISVTVSS
VL: DVVMTQTPLSLPVSLGDQASISCRSSQSLVHSNGNTYLHWFLQKPGQSPKLLIYKVSIRFSGVPDRFSGSGSGTDFTLKISRVEAEDLGVYFCSQSTHVPPLTFGAGTKLELKR
As for B1, in the experiment with human CB2 (full length), the “signal to background ratio” value came out at 10. Also, the binding result with Human_CB2-pANITA3.1 is “binds”; with mouse CB2 (full length), “no binding”; in the experiment with Mouse_CB2-pANITA3.1 it was “no binding”; with human CB1 (full length), “no binding”.
